What all share (test): cell-based or functional assay
The target in experiment [1] is HIV-1 Env of pseudovirus 1054_07_TC4_1499 (HIV-1).
Experiment [2] addresses HIV-1 Env of pseudovirus BF1266.431a (HIV-1).
The target of experiment [3] is HIV-1 Env of pseudovirus Ce0682_E4 (HIV-1).
For experiment [4], the target named is HIV-1 Env of pseudovirus Ce1086_B2 (HIV-1).
Experiment [5] deals with HIV-1 Env of pseudovirus HIV-16845-2.22 (HIV-1).
The target of experiment [6] is HIV-1 Env of pseudovirus PVO.4 (HIV-1).
Experiment [7] deals with HIV-1 Env of pseudovirus Q769.d22 (HIV-1).
The target of experiment [8] is HIV-1 Env of pseudovirus WITO4160.33 (HIV-1).
Experiment [9] addresses HIV-1 Env pseudovirus 7030102001E5(Rev-) (HIV-1).
Experiment [10] has as its target HIV-1 Env pseudovirus CNE17 (HIV-1).
For experiment [11], the target named is HIV-1 Env pseudovirus Ce0393_C3 (HIV-1).
The target in experiment [12] is HIV-1 Env pseudovirus Ce703010054_2A2 (HIV-1).
Experiment [13] deals with HIV-1 Env pseudovirus Du156.12 (HIV-1).
For experiment [14], the target named is HIV-1 Env pseudovirus HIV-16845-2.22 (HIV-1).
In experiment [15] the target is HIV-1 Env pseudovirus Q769.d22 (HIV-1).
The target in experiment [16] is HIV-1 Env pseudovirus TRJO4551.58 (HIV-1).
Experiment [17] deals with HIV-1 Env pseudovirus TRO.11 (HIV-1).
Experiment [18] addresses HIV-1 Env pseudovirus WEAU_d15_410_787 (HIV-1).
For experiment [19], the target named is HIV-1 Env pseudovirus ZM197M.PB7 (HIV-1).
The target of experiment [20] is HIV-1 Env pseudovirus ZM233M.PB6 (HIV-1).
For experiment [21], the target named is HIV-1 Env pseudovirus ZM249M.PL1 (HIV-1).

By IC50 is commonly meant the concentration that inhibits the measured activity by half. A higher IC50 goes with a need for much substance. By IC80 is commonly meant the point of the concentration-response curve where the effect stands at 80%. A low value points to an effect from little substance.

As to N49P7.1 (antibody), the IC50 in experiment [1] is 0.627 µg/mL; in [2], 0.033 µg/mL; in [3] it was 0.026 µg/mL; in experiment [4], 0.121 µg/mL; in experiment [5] it was 1.07 µg/mL; in experiment [6] it was 0.124 µg/mL. The IC50 in experiment [7] was 0.044 µg/mL; in [8], 0.121 µg/mL. Moreover, the 80% effect concentration (IC80) in experiment [1] turned out to be 2.98 µg/mL; in experiment [2], 0.11 µg/mL; in experiment [3] it was 0.099 µg/mL; in [4] it was 0.742 µg/mL; in experiment [5] it was 5.4 µg/mL; in [6], 0.421 µg/mL. Also, the IC80 turned out to be 0.163 µg/mL in experiment [7] and 0.326 µg/mL in experiment [8]. Besides, the MPI in experiment [1] came out at 100; in experiment [2], 100; in experiment [3], 100; in experiment [4], 99; in [5], 100; in [6], 100. For the same substance, the MPI in [7] and in experiment [8] was 100 in each case.

On to PGT151 (antibody), for which the neutralization IC50 in [1] is 0.008 µg/mL; in experiment [2], more than 50 µg/mL; in experiment [3], more than 50 µg/mL; in experiment [4], 2.65 µg/mL; in experiment [5], more than 50 µg/mL; in experiment [6], 0.017 µg/mL. Besides, the neutralization IC50 was more than 50 µg/mL in experiment [7] and 0.002 µg/mL in [8]. Besides, the neutralization IC80 is 0.032 µg/mL in experiment [1]; more than 50 µg/mL in experiment [2]; more than 50 µg/mL in experiment [3]; more than 50 µg/mL in experiment [4]; more than 50 µg/mL in experiment [5]; more than 50 µg/mL in experiment [6]. Besides, the neutralization IC80 is more than 50 µg/mL in experiment [7] and 0.021 µg/mL in experiment [8].

Regarding PGDM1400 (antibody), the neutralization IC50 in experiment [1] was more than 50 µg/mL; in [2], 0.003 µg/mL; in experiment [3], 0.01 µg/mL; in experiment [4], more than 50 µg/mL; in [5], more than 50 µg/mL; in experiment [6], 0.484 µg/mL. Moreover, the neutralization IC50 in experiment [7] was 0.002 µg/mL; in [8], less than 0.001 µg/mL. Also, the neutralization IC80 was more than 50 µg/mL in [1]; 0.011 µg/mL in experiment [2]; 0.043 µg/mL in experiment [3]; more than 50 µg/mL in [4]; more than 50 µg/mL in experiment [5]; 6.49 µg/mL in [6]. In addition, the neutralization IC80 in experiment [7] turned out to be 0.018 µg/mL; in experiment [8], 0.008 µg/mL.

Consider N49P7.2 (antibody), for which the half-maximal inhibitory concentration (IC50) in experiment [9] amounted to 0.313 µg/mL; in [10] it was 0.376 µg/mL; in experiment [11], 0.137 µg/mL; in experiment [12], 0.124 µg/mL; in experiment [13], 0.058 µg/mL; in experiment [14], 3.91 µg/mL. Moreover, the IC50 in [15] was 0.029 µg/mL; in experiment [16], 0.21 µg/mL; in experiment [17], 0.113 µg/mL; in experiment [18], 0.052 µg/mL; in [19], 0.223 µg/mL; in experiment [20], 0.475 µg/mL. The substance further registered an IC50 in experiment [21] of 0.073 µg/mL. The IC80 in [9] amounted to 1.03 µg/mL; in [10], 1.24 µg/mL; in experiment [11], 0.368 µg/mL; in experiment [12], 0.576 µg/mL; in experiment [13], 0.21 µg/mL; in [14] it was 18.2 µg/mL. Further, the IC80 in [15] came to 0.14 µg/mL; in experiment [16] it was 0.673 µg/mL; in experiment [17], 0.306 µg/mL; in experiment [18], 0.15 µg/mL; in experiment [19], 1.37 µg/mL; in experiment [20], 2.14 µg/mL. In [21], this substance returned an IC80 of 0.256 µg/mL. In addition, the MPI is 100 in experiment [9]; 100 in experiment [10]; 100 in [11]; 100 in [12]; 100 in [13]; 98 in experiment [14]. Besides, the MPI in experiment [15] is 100; in experiment [16] it was 100; in [17] it was 100; in [18], 100; in experiment [19] it was 100; in [20], 99. This substance displayed an MPI in [21] of 100.

As to N49P11 (antibody), the IC50 came to 0.635 µg/mL in experiment [9]; 6.68 µg/mL in [10]; 1.51 µg/mL in experiment [11]; 1.42 µg/mL in [12]; 2.4 µg/mL in experiment [13]; 1.72 µg/mL in experiment [14]. In addition, the IC50 in [15] worked out at 0.048 µg/mL; in experiment [16] it was 0.183 µg/mL; in experiment [17] it was 0.179 µg/mL; in experiment [18], 1.7 µg/mL; in experiment [19], 0.303 µg/mL; in experiment [20], 5.92 µg/mL. Besides, in [21], the IC50 was found to be 3.64 µg/mL. The IC80 in experiment [9] was 2.29 µg/mL; in experiment [10], 25.6 µg/mL; in [11], 9.71 µg/mL; in [12], 7.51 µg/mL; in experiment [13] it was 12 µg/mL; in experiment [14], 8.15 µg/mL. Besides, the IC80 in experiment [15] is 0.308 µg/mL; in experiment [16], 0.656 µg/mL; in experiment [17], 0.937 µg/mL; in experiment [18], 6.02 µg/mL; in [19], 1.59 µg/mL; in [20], 18.5 µg/mL. Also, in [21], the IC80 is 17.4 µg/mL. Also, the MPI in experiment [9], in experiment [10], in experiment [11], in experiment [12], in experiment [13] and in experiment [14] was 100 in each case. Besides, the MPI in experiment [15], in experiment [16], in experiment [17], in experiment [18], in experiment [19] and in experiment [20] was 100 throughout. Besides, the MPI in experiment [21] was found to be 100.

With PGT145 (antibody), the neutralization IC50 in [1] is more than 50 µg/mL; in [2], 1.34 µg/mL; in experiment [3], 33.6 µg/mL; in [4], more than 50 µg/mL; in experiment [5] it was more than 50 µg/mL; in experiment [6] it was 0.192 µg/mL. In addition, the neutralization IC50 was 0.26 µg/mL in experiment [7] and less than 0.001 µg/mL in experiment [8]. Also, the neutralization IC80 in [1] is more than 50 µg/mL; in [2] it was 18.5 µg/mL; in experiment [3] it was more than 50 µg/mL; in experiment [4], more than 50 µg/mL; in experiment [5], more than 50 µg/mL; in [6] it was 0.87 µg/mL. The neutralization IC80 in [7] amounted to 25.5 µg/mL; in experiment [8], 0.001 µg/mL.

For the substance NIH 45-46 (antibody), the IC50 in [1] came to 0.07 µg/mL; in [2], 0.01 µg/mL; in experiment [3], 0.07 µg/mL; in experiment [4], 0.04 µg/mL; in experiment [5] it was 2.05 µg/mL; in experiment [6], 0.17 µg/mL. Moreover, the 50% inhibitory concentration (IC50) in experiment [7] and in [8] was 0.01 µg/mL throughout. The IC80 in experiment [1] stood at 0.61 µg/mL; in [2] it was 0.03 µg/mL; in [3] it was 0.25 µg/mL; in experiment [4] it was 0.28 µg/mL; in experiment [5], 12.1 µg/mL; in experiment [6] it was 0.47 µg/mL. In addition, the IC80 in [7] came out at 0.04 µg/mL; in [8], 0.08 µg/mL.

Regarding PGT128 (antibody), the neutralization IC50 in experiment [1] is 0.035 µg/mL; in [2] it was more than 50 µg/mL; in [3], more than 50 µg/mL; in experiment [4], more than 50 µg/mL; in experiment [5], 0.181 µg/mL; in experiment [6], 0.011 µg/mL. The neutralization IC50 in experiment [7] and in experiment [8] was more than 50 µg/mL throughout. The neutralization IC80 is 0.312 µg/mL in [1]; more than 50 µg/mL in [2]; more than 50 µg/mL in [3]; more than 50 µg/mL in experiment [4]; 0.834 µg/mL in [5]; 0.028 µg/mL in experiment [6]. Further, the neutralization IC80 in [7] and in experiment [8] was more than 50 µg/mL throughout.

With N49P7 (antibody), the IC50 was 0.494 µg/mL in experiment [1]; 0.057 µg/mL in experiment [2]; 0.041 µg/mL in [3]; 0.089 µg/mL in experiment [4]; 0.95 µg/mL in experiment [5]; 0.107 µg/mL in [6]. Moreover, the values for the half-maximal inhibitory concentration (IC50) in [7] and in [8] were 0.025 µg/mL and 0.084 µg/mL, respectively. For the same substance, the concentration for an effect of 80% (IC80) in experiment [1] was 2.31 µg/mL; in experiment [2], 0.199 µg/mL; in experiment [3] it was 0.131 µg/mL; in experiment [4], 0.568 µg/mL; in experiment [5], 3.94 µg/mL; in experiment [6] it was 0.365 µg/mL. Besides, the 80% effect concentration (IC80) in experiment [7] turned out to be 0.111 µg/mL; in [8] it was 0.248 µg/mL. Further, the MPI in experiment [1], in [2], in experiment [3], in experiment [4], in experiment [5] and in [6] was 100 throughout. Also, the MPI in [7] and in experiment [8] was 100 each time.

The record behind these values is US20240117018A1.
